According to patent US10766960 (dated 2020):

T1: FcgRIIb (human, UniProt P31994)
T1 chain: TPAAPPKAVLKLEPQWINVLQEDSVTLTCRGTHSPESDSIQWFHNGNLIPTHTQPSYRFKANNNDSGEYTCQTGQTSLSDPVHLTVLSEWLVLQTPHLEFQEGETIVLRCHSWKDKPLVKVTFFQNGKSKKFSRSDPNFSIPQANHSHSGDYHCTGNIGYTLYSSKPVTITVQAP

T2: FcgRIa (human, UniProt P12314)
T2 chain: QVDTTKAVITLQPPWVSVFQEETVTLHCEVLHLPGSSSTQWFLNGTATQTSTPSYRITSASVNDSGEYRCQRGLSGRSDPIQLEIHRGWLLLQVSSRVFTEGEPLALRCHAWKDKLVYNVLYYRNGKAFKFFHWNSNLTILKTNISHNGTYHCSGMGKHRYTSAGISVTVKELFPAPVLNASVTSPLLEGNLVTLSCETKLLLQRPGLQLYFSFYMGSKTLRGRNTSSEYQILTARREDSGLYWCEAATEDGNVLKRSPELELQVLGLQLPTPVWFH

T3: FcgRIIa R (human, UniProt P12318)
T3 chain: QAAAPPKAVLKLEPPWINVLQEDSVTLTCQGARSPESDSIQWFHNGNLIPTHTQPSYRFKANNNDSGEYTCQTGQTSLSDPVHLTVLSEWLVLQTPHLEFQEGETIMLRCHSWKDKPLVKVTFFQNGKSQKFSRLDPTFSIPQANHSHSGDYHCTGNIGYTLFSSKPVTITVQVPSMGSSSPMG

T4: FcgRIIa H (human, UniProt P12318)
T4 chain: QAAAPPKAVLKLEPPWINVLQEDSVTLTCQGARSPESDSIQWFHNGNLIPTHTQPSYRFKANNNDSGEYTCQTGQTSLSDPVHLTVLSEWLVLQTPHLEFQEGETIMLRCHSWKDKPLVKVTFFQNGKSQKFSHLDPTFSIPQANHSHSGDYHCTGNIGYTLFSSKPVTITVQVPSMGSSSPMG


How the values were obtained:
Test in all cases: SPR
[1] = molecular target: FcgRIIIa F (human, UniProt P08637)
Chain of FcgRIIIa F (P08637 17-208): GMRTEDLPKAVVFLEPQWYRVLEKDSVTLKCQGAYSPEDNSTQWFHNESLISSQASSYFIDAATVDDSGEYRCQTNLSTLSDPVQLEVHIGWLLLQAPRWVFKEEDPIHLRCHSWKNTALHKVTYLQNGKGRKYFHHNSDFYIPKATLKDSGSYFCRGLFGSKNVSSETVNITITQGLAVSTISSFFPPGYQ

[2] = molecular target: FcgRIIIa V (human, UniProt P08637)
Chain of FcgRIIIa V (P08637 17-208 F176V): as the sequence (P08637 17-208) above, with F160V counted along it

[3] = molecular target: T1, FcgRIIb
[4] = molecular target: T2, FcgRIa
[5] = molecular target: T3, FcgRIIa R
[6] = molecular target: T4, FcgRIIa H

Row | Kd [1] [nM] | Kd [2] [nM] | Kd [3] [nM] | Kd [4] [nM] | Kd [5] [nM] | Kd [6] [nM] | Binder
1 | 4.6 | 1.2 | 2800 | 0.5 | 280 | 69 | H240-Kn200/H240-Hl068/L73-k0 (antibody) chain 1: QDQLVQSGAEVKKPGASVKVSCKASGFNIKDTYIQWVRQAPGQGLEWMGRIDPLRKQTKYREKFEGRVTITADTSTNTAYMELSSLRSEDTAVYYCVRSGREFDYWGQGTLVTVSSASTKGPSVFPLAPSSKSTSGGTAALGCLVKDYFPEPVTVSWNSGALTSGVHTFPAVLQSSGLYSLSSVVTVPSSSLGTQTYICNVNHKPSNTKVDKKVEPKSCDKTHTCPPCPAPESQWGPMVFLFPPKPKDTLMISRTPEVTCVVVDVSDEEPEVKFNWYVDGVEVHNAKTKPREEQYNATYRVVSVLTVLHQDWLNGKEYKCKVSNKALPAPIEKTISKAKGQPREPQVCTLPPSRDELTKNQVSLWCLVKGFYPSDIAVEWESNGQPENNYKTTPPVLDSDGSFFLYSKLTVDKSRWQQGNVFSCSVMHEALHNHYTQKSLSLSP chain 2: QDQLVQSGAEVKKPGASVKVSCKASGFNIKDTYIQWVRQAPGQGLEWMGRIDPLRKQTKYREKFEGRVTITADTSTNTAYMELSSLRSEDTAVYYCVRSGREFDYWGQGTLVTVSSASTKGPSVFPLAPSSKSTSGGTAALGCLVKDYFPEPVTVSWNSGALTSGVHTFPAVLQSSGLYSLSSVVTVPSSSLGTQTYICNVNHKPSNTKVDKKVEPKSCDKTHTCPPCPAPELLGGPSVFLFPPKPKDTLMISRTPEVTCVVVDVSHEEPEVKFNWYVDGVEVHNAKTKPREEQYNSTYRVVSVLTVLHQDWLNGKEYKCKVSNDALPKPIEETISKAKGQPREPQVYTLPPSRCELTKNQVSLSCAVKGFYPSDIAVEWESNGQPENNYKTTPPVLDSDGSFFLVSKLTVDKSRWQQGNVFSCSVMHEALHNHYTQKSLSLSP chain 3: DIQMTQSPSSLSASVGDRVTITCRASQDIHKYIAWYQQKPGQAPRLLIQYTSTLQPGVPSRFSGSGSGTDYTFTISSLQPEDIATYYCLQYEQLRTFGGGTKVEIKRTVAAPSVFIFPPSDEQLKSGTASVVCLLNNFYPREAKVQWKVDNALQSGNSQESVTEQDSKDSTYSLSSTLTLSKADYEKHKVYACEVTHQGLSSPVTKSFNRGEC
2 | 5.7 | 1.2 | 2600 | 0.18 | 480 | 170 | H240-Kn200/H240-Hl210/L73-k0 (antibody) chain 1: QDQLVQSGAEVKKPGASVKVSCKASGFNIKDTYIQWVRQAPGQGLEWMGRIDPLRKQTKYREKFEGRVTITADTSTNTAYMELSSLRSEDTAVYYCVRSGREFDYWGQGTLVTVSSASTKGPSVFPLAPSSKSTSGGTAALGCLVKDYFPEPVTVSWNSGALTSGVHTFPAVLQSSGLYSLSSVVTVPSSSLGTQTYICNVNHKPSNTKVDKKVEPKSCDKTHTCPPCPAPESQWGPMVFLFPPKPKDTLMISRTPEVTCVVVDVSDEEPEVKFNWYVDGVEVHNAKTKPREEQYNATYRVVSVLTVLHQDWLNGKEYKCKVSNKALPAPIEKTISKAKGQPREPQVCTLPPSRDELTKNQVSLWCLVKGFYPSDIAVEWESNGQPENNYKTTPPVLDSDGSFFLYSKLTVDKSRWQQGNVFSCSVMHEALHNHYTQKSLSLSP chain 2: QDQLVQSGAEVKKPGASVKVSCKASGFNIKDTYIQWVRQAPGQGLEWMGRIDPLRKQTKYREKFEGRVTITADTSTNTAYMELSSLRSEDTAVYYCVRSGREFDYWGQGTLVTVSSASTKGPSVFPLAPSSKSTSGGTAALGCLVKDYFPEPVTVSWNSGALTSGVHTFPAVLQSSGLYSLSSVVTVPSSSLGTQTYICNVNHKPSNTKVDKKVEPKSCDKTHTCPPCPAPELLGGPSVFLFPPKPKDTLMISRTPEVTCVVVDVSHEEPEVKFNWYVDGVEVHNAKTKPREEQYNSTYRVVSVLTVLHQDWLNGKEYKCKVSNDALPAPIEETISKAKGQPREPQVYTLPPSRCELTKNQVSLSCAVKGFYPSDIAVEWESNGQPENNYKTTPPVLDSDGSFFLVSKLTVDKSRWQQGNVFSCSVMHEALHNHYTQKSLSLSP chain 3: DIQMTQSPSSLSASVGDRVTITCRASQDIHKYIAWYQQKPGQAPRLLIQYTSTLQPGVPSRFSGSGSGTDYTFTISSLQPEDIATYYCLQYEQLRTFGGGTKVEIKRTVAAPSVFIFPPSDEQLKSGTASVVCLLNNFYPREAKVQWKVDNALQSGNSQESVTEQDSKDSTYSLSSTLTLSKADYEKHKVYACEVTHQGLSSPVTKSFNRGEC
3 | 5.3 | 1.2 | 3900 | 0.26 | 360 | 56 | H240-Kn201/H240-Hl068/L73-k0 (antibody) chain 1: QDQLVQSGAEVKKPGASVKVSCKASGFNIKDTYIQWVRQAPGQGLEWMGRIDPLRKQTKYREKFEGRVTITADTSTNTAYMELSSLRSEDTAVYYCVRSGREFDYWGQGTLVTVSSASTKGPSVFPLAPSSKSTSGGTAALGCLVKDYFPEPVTVSWNSGALTSGVHTFPAVLQSSGLYSLSSVVTVPSSSLGTQTYICNVNHKPSNTKVDKKVEPKSCDKTHTCPPCPAPEFQWGPMVFLFPPKPKDTLMISRTPEVTCVVVDVSDEEPEVKFNWYVDGVEVHNAKTKPREEQYNATYRVVSVLTVLHQDWLNGKEYKCKVSNKALPAPIEKTISKAKGQPREPQVCTLPPSRDELTKNQVSLWCLVKGFYPSDIAVEWESNGQPENNYKTTPPVLDSDGSFFLYSKLTVDKSRWQQGNVFSCSVMHEALHNHYTQKSLSLSP chain 2: QDQLVQSGAEVKKPGASVKVSCKASGFNIKDTYIQWVRQAPGQGLEWMGRIDPLRKQTKYREKFEGRVTITADTSTNTAYMELSSLRSEDTAVYYCVRSGREFDYWGQGTLVTVSSASTKGPSVFPLAPSSKSTSGGTAALGCLVKDYFPEPVTVSWNSGALTSGVHTFPAVLQSSGLYSLSSVVTVPSSSLGTQTYICNVNHKPSNTKVDKKVEPKSCDKTHTCPPCPAPELLGGPSVFLFPPKPKDTLMISRTPEVTCVVVDVSHEEPEVKFNWYVDGVEVHNAKTKPREEQYNSTYRVVSVLTVLHQDWLNGKEYKCKVSNDALPKPIEETISKAKGQPREPQVYTLPPSRCELTKNQVSLSCAVKGFYPSDIAVEWESNGQPENNYKTTPPVLDSDGSFFLVSKLTVDKSRWQQGNVFSCSVMHEALHNHYTQKSLSLSP chain 3: DIQMTQSPSSLSASVGDRVTITCRASQDIHKYIAWYQQKPGQAPRLLIQYTSTLQPGVPSRFSGSGSGTDYTFTISSLQPEDIATYYCLQYEQLRTFGGGTKVEIKRTVAAPSVFIFPPSDEQLKSGTASVVCLLNNFYPREAKVQWKVDNALQSGNSQESVTEQDSKDSTYSLSSTLTLSKADYEKHKVYACEVTHQGLSSPVTKSFNRGEC
4 | 3 | 0.9 | 4500 | 0.053 | 720 | 420 | H240-Kn208/H240-Hl214/L73-k0 (antibody) chain 1: QDQLVQSGAEVKKPGASVKVSCKASGFNIKDTYIQWVRQAPGQGLEWMGRIDPLRKQTKYREKFEGRVTITADTSTNTAYMELSSLRSEDTAVYYCVRSGREFDYWGQGTLVTVSSASTKGPSVFPLAPSSKSTSGGTAALGCLVKDYFPEPVTVSWNSGALTSGVHTFPAVLQSSGLYSLSSVVTVPSSSLGTQTYICNVNHKPSNTKVDKKVEPKSCDKTHTCPPCPAPEDQWGPMVFLFPPKPKDTLMISRTPEVTCVVVDVSDEEPEVKFNWYVDGVEVHNAKTKPREEQYNATYRVVSVLTVLHQDWLNGKEYKCKVSNKALPAPIEKTISKAKGQPREPQVCTLPPSRDELTKNQVSLWCLVKGFYPSDIAVEWESNGQPENNYKTTPPVLDSDGSFFLYSKLTVDKSRWQQGNVFSCSVMHEALHNHYTQKSLSLSP chain 2: QDQLVQSGAEVKKPGASVKVSCKASGFNIKDTYIQWVRQAPGQGLEWMGRIDPLRKQTKYREKFEGRVTITADTSTNTAYMELSSLRSEDTAVYYCVRSGREFDYWGQGTLVTVSSASTKGPSVFPLAPSSKSTSGGTAALGCLVKDYFPEPVTVSWNSGALTSGVHTFPAVLQSSGLYSLSSVVTVPSSSLGTQTYICNVNHKPSNTKVDKKVEPKSCDKTHTCPPCPAPELLGGPSVFLFPPKPKDTLMISRTPEVTCVVVDVSHEEPEVKFNWYVDGVEVHNAKTKPREEQYNSTYRVVSVLTVLHQDWLNGKEYKCKVSNDALPFPIEETISKAKGQPREPQVYTLPPSRCELTKNQVSLSCAVKGFYPSDIAVEWESNGQPENNYKTTPPVLDSDGSFFLVSKLTVDKSRWQQGNVFSCSVMHEALHNHYTQKSLSLSP chain 3: DIQMTQSPSSLSASVGDRVTITCRASQDIHKYIAWYQQKPGQAPRLLIQYTSTLQPGVPSRFSGSGSGTDYTFTISSLQPEDIATYYCLQYEQLRTFGGGTKVEIKRTVAAPSVFIFPPSDEQLKSGTASVVCLLNNFYPREAKVQWKVDNALQSGNSQESVTEQDSKDSTYSLSSTLTLSKADYEKHKVYACEVTHQGLSSPVTKSFNRGEC
